The target in the assay is murine splenic AA amyloid extract (mouse (endogenous in spleen)) (UniProt P05367). Nature of the assay: co-sedimentation; pulldown with murine splenic AA amyloid extract in the presence of 20 μg non-radiolabeled peptide (competition).
murine splenic AA amyloid extract (mouse (endogenous in spleen)), sequence (P05367 20-122): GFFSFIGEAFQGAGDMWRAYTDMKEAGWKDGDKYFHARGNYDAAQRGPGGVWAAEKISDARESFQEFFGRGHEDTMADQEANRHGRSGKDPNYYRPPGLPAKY

Turning to GGGYSKAQKAQAKQAKQAQKAQKAQAKQAKQAQKAQKAQAKQAKQ [non-radiolabeled peptide p5+14], the % of ^99mTc-p5+14 bound in the presence of 20 μg non-radiolabeled peptide was 4%.

Source of the values: PMC10997057.
